Test in all cases: BLI; […] (AHC) biosensor, […]; Octet Red; 25 °C; kinetics buffer 1 × PBS, pH 7.4; association 900 s, dissociation 900 s; […]
Common to all, as to conditions: both partners purified

The target in experiment [1] is HA of A/Anhui/1/2005(H5N1) (Influenza A virus A/Anhui/1/2005(H5N1), strain).
Experiment [2] has as its target HA of A/Hong Kong/483/1997(H5N1) (Influenza A virus A/Hong …, strain).
A further experiment addresses HA of A/WSN/1933(H1N1) (Influenza A virus A/WSN/1933(H1N1), strain).
Experiment [3] deals with HA of A/Vietnam/1203/2004(H5N1) (Influenza A virus …, UniProt A8UDR6, strain).
In experiment [4] the target is T1, HA of A/Brevig Mission/1/1918(H1N1) (Influenza A virus A/Brevig …, UniProt Q9WFX3, strain).
T1 construct: source: bought: Sino Biological Inc

The target of experiment [5] is HA of A/Brisbane/59/2007(H1N1) (Influenza A virus …, strain).
Experiment [6] deals with HA of A/Canada/720/2005(H2N2) (Influenza A virus …, UniProt Q4ZH98, strain).
The target in experiment [7] is HA of A/California/07/2009(H1N1) (Influenza A virus …, UniProt C3W5X2, strain).

B1: human mAb 3E1 (antibody, V domains shown)
VH: QVQLQESGPGLVKPSETLSLTCSVSGASISSYYWIWIRQPAGKGLEWIGRFYTSGSPNYNPSLRSRVTMSVDTSKNQFSLKLTSVTAADTAVYYCAREEHITFGGVIVRYWGQGTLVTVSS
VL: DIQMTQSPATLSASVGDRVSITCRASQSISSWLAWYQQKPGKAPKLLIYKASSLESGVPSRFSGSGSGSEFTLTISSLQPDDFAIYYCQQYNSYPWTFGQGTKVEIK
notes: IgG1, kappa; also called 3E1 mAb
For B1, the binding result (in experiment [1]; in experiment [2]; with HA of A/WSN/1933(H1N1); in experiment [3]; in experiment [4]; in experiment [5]) was “binds” in each case. The results for the binding result in experiment [6] and in experiment [7] were “no binding” and “binds”, respectively.
